Measured values reported in patent US20060140929.
Changes are numbered by the printed parent chain.

Assays:
[1] = system: T1, hirudin mutein M 1 (I29A L30A)
T1 sequence: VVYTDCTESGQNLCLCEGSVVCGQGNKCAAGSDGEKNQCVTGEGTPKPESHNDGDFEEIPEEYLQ

[2] = system: T2, hirudin mutein M 2 (I29R L30H)
T2 sequence: T1 sequence with A29R, A30H

thrombin
Relative activity (ED50 variant/ED50 WT hirudin), chromogenic thrombin cleavage assay [1]: 1.4
Relative activity (ED50 variant/ED50 WT hirudin), chromogenic thrombin cleavage assay [2]: 1.2
